Measured values as given in paper PMC9330637.
Read-outs that look alike come from different tables or passages of the source.

Assays:
FUS wild-type [1] = biological target: T1, FUS wild-type (UniProt P35637 1-526); assay: single-molecule fluorescence
FUS wild-type [2] = biological target: T1, FUS wild-type; assay: fluorescence anisotropy
FUS Y>S = FUS Y>S (UniProt P35637 1-526, Y6S;Y14S;Y17S;Y25S;Y33S;Y38S;Y41S;Y50S;Y55S;Y58S;Y66S;Y75S;Y81S;Y91S;Y97S;Y100S; …); assay: single-molecule fluorescence
FUS wild-type [3] = biological target: T1, FUS wild-type; assay: single-molecule fluorescence; remark: listed apart in the source

B1: pdPAR9 (mixed)
DNA 1: TGGCGACGGCAGCGAGGC
DNA 2: GCCTCGCTGCCGTCGCCA
modifications: PAR 9-mer joined to DNA strand 1 by alkyne-azide click; PAR not part of printed strand
B1: binds (FUS wild-type [1]).

B2: U40 RNA (ssRNA)
RNA: UUUUUUUUUUUUUUUUUUUUUUUUUUUUUUUUUUUUUUUU
B2 gave a Kd (FUS wild-type [2]) of ~5 nM.

B3: pdPAR22 (mixed)
DNA 1: TGGCGACGGCAGCGAGGC
DNA 2: GCCTCGCTGCCGTCGCCA
modifications: PAR 22-mer joined to DNA strand 1 by alkyne-azide click; PAR not part of printed strand
B3: binds (FUS wild-type [1]); binds (FUS Y>S).

B4: pdU50 RNA (mixed)
RNA 1: UUUUUUUUUUUUUUUUUUUUUUUUUUUUUUUUUUUUUUUUUUUUUUUUUUGCCUCGCUGCCGUCGCCA
RNA 2: UGGCGACGGCAGCGAGGC
B4: binds (FUS wild-type [3]).
